Reference: US8846003 (PURDUE RESEARCH FOUNDATION, dated 2014)
*: point of attachment. Dansyl = CN(C)c1cccc2c(S(=O)(=O)*)cccc12

Legend:
collagen [1] = target: T1, collagen; experiment: microplate fluorescence binding assay on collagen-coated wells, binding curve fitted to the data of FIGURE 4
T1 construct: also called collagen surface; collagen-treated well
Text: Figure 4: FIG. 4. Binding of dansyl-modified peptide SILY to collagen measured in 96-well high-binding plate (black with a clear bottom (Costar)). PBS, buffer only; BSA, BSA-treated well; Collagen, collagen-treated well. Fluorescence readings were taken on an M5 Spectramax Spectrophotometer (Molecular Devices) at excitation/emission wavelengths of 335 nm/490 nm, respectively. Figure 5: FIG. 5. Collagen-dansyl-modified peptide SILY binding curve derived from fluorescence data described in FIG. 4. Figure 6: FIG. 6. A schematic description of the reagent, 3-(2-pyridyldithio)propionyl hydrazide (PDPH), and the chemistry of the two-step conjugation of a cysteine-containing peptide with an oxidized glycosylaminoglycoside showing the release of 2-pyridylthiol in the final step.
Binding assays were done in a 96-well high-binding plate, black with a clear bottom (Costar). Collagen was compared to untreated wells and BSA coated wells. Collagen and BSA were immobilized at 37° C. for 1 hr by incubating 90 µL/well at concentrations of 2 mg/mL in 10 mM HCl and 1×PBS, respectively. Each well was washed 3× with 1×PBS after incubating. Z-SILY was dissolved in 1×PBS at concentrations from 100 µM to 10 nM in 10-fold dilutions. […] Fluorescence readings were taken on an M5 Spectramax Spectrophotometer (Molecular Devices) at excitation/emission wavelengths of 335 nm/490 nm respectively.

collagen [2] = target: T1, collagen; experiment: fluorescence plate binding assay; collagen coated on 96-well high-binding plate, Z-SILY 100 µM to 10 nM, ex/em 335/490 nm; from equilibrium binding
Procedure: Binding assays were done in a 96-well high-binding plate, black with a clear bottom (Costar). Collagen was compared to untreated wells and BSA coated wells. Collagen and BSA were immobilized at 37° C. for 1 hr by incubating 90 µL/well at concentrations of 2 mg/mL in 10 mM HCl and 1×PBS, respectively. Each well was washed 3× with 1×PBS after incubating. Z-SILY was dissolved in 1×PBS at concentrations from 100 µM to 10 nM in 10-fold dilutions. Wells were incubated for 30 min at 37° C. and rinsed 3× with PBS and then filled with 90 µL of 1×PBS. Fluorescence readings were taken on an M5 Spectramax Spectrophotometer (Molecular Devices) at excitation/emission wavelengths of 335 nm/490 nm respectively.

B1: Dansyl-GRRANAALKAGELYKSILYGC (peptide)
peptide: Dansyl-GRRANAALKAGELYKSILYGC-NH2
notes: Fluorescently labelled version of SILY; also called Z-SILY; ZSILY
EC50 (read off the curve) (collagen [1]): ~900 nM
Kd (collagen [2]): 860 nM
